In PMC10119312, “Structural insights into RNase J that plays an essential role in Mycobacterium tuberculosis RNA metabolism” (Nature Communications, 2023):

What was measured:
[1] = target: T1, Mtb-RNase J D85A (catalytically inactive) (Mycobacterium tuberculosis H37Rv, UniProt P9WGZ9 1-558, D85A); experiment: EMSA; conditions: protein: recombinant; tags: N-terminal 6xHis-SUMO, removed by ULP1; chain copies: 2; label: 5'-FAM; single strand
T1 sequence: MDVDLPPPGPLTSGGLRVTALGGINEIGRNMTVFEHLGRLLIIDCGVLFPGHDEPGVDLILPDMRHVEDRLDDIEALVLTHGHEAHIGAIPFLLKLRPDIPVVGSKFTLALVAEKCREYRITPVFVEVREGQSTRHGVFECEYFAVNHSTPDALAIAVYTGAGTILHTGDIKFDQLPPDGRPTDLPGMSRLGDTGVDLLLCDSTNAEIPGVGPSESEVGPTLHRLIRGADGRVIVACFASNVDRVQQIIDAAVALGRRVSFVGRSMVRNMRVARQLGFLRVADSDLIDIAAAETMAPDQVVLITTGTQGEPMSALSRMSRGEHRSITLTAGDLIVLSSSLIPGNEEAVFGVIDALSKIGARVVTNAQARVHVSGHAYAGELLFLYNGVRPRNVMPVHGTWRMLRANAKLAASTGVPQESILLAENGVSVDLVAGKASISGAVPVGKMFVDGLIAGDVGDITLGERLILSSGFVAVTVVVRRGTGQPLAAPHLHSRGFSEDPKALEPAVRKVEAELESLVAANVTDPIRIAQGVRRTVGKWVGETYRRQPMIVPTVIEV

SEC = target: the molecule itself; experiment: SEC
Mtb-RNase J 1-375/D85A = target: T2, Mtb-RNase J 1-375/D85A (Mycobacterium tuberculosis H37Rv, UniProt P9WGZ9 1-375, D85A); experiment: EMSA; 0.5 uM RNA; binding abolished; conditions: protein: recombinant; tags: N-terminal 6xHis-SUMO, removed by ULP1; single strand
T2 sequence: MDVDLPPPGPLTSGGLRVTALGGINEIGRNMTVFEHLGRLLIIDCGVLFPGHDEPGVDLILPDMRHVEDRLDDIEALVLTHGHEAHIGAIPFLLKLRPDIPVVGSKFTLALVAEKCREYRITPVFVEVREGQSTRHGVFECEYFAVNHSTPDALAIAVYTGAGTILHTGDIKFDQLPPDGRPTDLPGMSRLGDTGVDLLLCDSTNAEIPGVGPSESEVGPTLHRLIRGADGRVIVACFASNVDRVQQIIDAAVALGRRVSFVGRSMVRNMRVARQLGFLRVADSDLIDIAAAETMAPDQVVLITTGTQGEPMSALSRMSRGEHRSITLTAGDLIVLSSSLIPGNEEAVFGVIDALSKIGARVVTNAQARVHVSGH

[2] = target: T1, Mtb-RNase J D85A (catalytically …); experiment: X-ray crystal structure; conditions: protein: recombinant; tags: N-terminal 6xHis-SUMO, removed by ULP1; chain copies: 2; single strand
crystal structure = target: the molecule itself; experiment: crystal structure

AAAAAAAAA (ssRNA) [9-nt poly(A) RNA]
binding result [1]: binds

B1: Mtb-RNase J truncated mutant 1-450 (domain or fragment)
chain: MDVDLPPPGPLTSGGLRVTALGGINEIGRNMTVFEHLGRLLIIDCGVLFPGHDEPGVDLILPDMRHVEDRLDDIEALVLTHGHEDHIGAIPFLLKLRPDIPVVGSKFTLALVAEKCREYRITPVFVEVREGQSTRHGVFECEYFAVNHSTPDALAIAVYTGAGTILHTGDIKFDQLPPDGRPTDLPGMSRLGDTGVDLLLCDSTNAEIPGVGPSESEVGPTLHRLIRGADGRVIVACFASNVDRVQQIIDAAVALGRRVSFVGRSMVRNMRVARQLGFLRVADSDLIDIAAAETMAPDQVVLITTGTQGEPMSALSRMSRGEHRSITLTAGDLIVLSSSLIPGNEEAVFGVIDALSKIGARVVTNAQARVHVSGHAYAGELLFLYNGVRPRNVMPVHGTWRMLRANAKLAASTGVPQESILLAENGVSVDLVAGKASISGAVPVGKMFVD
notes: also called truncated protein (1–450); not shown: 6xHis-sumo, N-terminal, cleaved
stoichiometry N (SEC): 2

UUCCGUUUAUUCAUACUUCA (ssRNA) [20-nt RNA (called poly(U) in legends; Methods print a mixed sequence)]
binding result (Mtb-RNase J 1-375/D85A): no binding

AAAAAAA (ssRNA) [7-nt poly(A) ssRNA]
binding result [2]: binds

B2: Mtb-RNase J truncated mutant 1-470 (domain or fragment)
chain: MDVDLPPPGPLTSGGLRVTALGGINEIGRNMTVFEHLGRLLIIDCGVLFPGHDEPGVDLILPDMRHVEDRLDDIEALVLTHGHEDHIGAIPFLLKLRPDIPVVGSKFTLALVAEKCREYRITPVFVEVREGQSTRHGVFECEYFAVNHSTPDALAIAVYTGAGTILHTGDIKFDQLPPDGRPTDLPGMSRLGDTGVDLLLCDSTNAEIPGVGPSESEVGPTLHRLIRGADGRVIVACFASNVDRVQQIIDAAVALGRRVSFVGRSMVRNMRVARQLGFLRVADSDLIDIAAAETMAPDQVVLITTGTQGEPMSALSRMSRGEHRSITLTAGDLIVLSSSLIPGNEEAVFGVIDALSKIGARVVTNAQARVHVSGHAYAGELLFLYNGVRPRNVMPVHGTWRMLRANAKLAASTGVPQESILLAENGVSVDLVAGKASISGAVPVGKMFVDGLIAGDVGDITLGERLILSS
notes: also called C-terminal truncation (1–470); C-terminal domain-depletion protein (1-470); not shown: 6xHis-sumo, N-terminal, cleaved
stoichiometry N (SEC): 2

B3: Mtb-RNase J (D85A), catalytically inactive mutant (enzyme)
chain: T1 sequence
notes: also called Mtb-RNase J D85A mutant; Mtb-RNase J/ssRNA (in complex with poly(A) ssRNA); not shown: 6xHis-sumo, N-terminal, cleaved
stoichiometry N (crystal structure): 2
